Results from US20030108521A1 (published 2003).

Target: T1, F/IX delta 111-140 (human; human adenovirus type 5, UniProt P03372 553-595)
T1 construct: domain: F domain; N-terminally F-tagged pIX truncated after residue 110 (lacks half of the leucine-repeat)
T1 sequence: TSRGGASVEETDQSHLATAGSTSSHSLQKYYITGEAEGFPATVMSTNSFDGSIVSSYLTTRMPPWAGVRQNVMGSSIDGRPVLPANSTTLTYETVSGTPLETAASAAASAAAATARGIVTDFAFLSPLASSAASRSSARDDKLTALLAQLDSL
Assay: co-immunoprecipitation with anti-F antibody from A549 cell extracts, Western blot with anti-pIX

B1: non-tagged wild type adenovirus type 5 protein IX (other)
chain: MSTNSFDGSIVSSYLTTRMPPWAGVRQNVMGSSIDGRPVLPANSTTLTYETVSGTPLETAASAAASAAAATARGIVTDFAFLSPLASSAASRSSARDDKLTALLAQLDSLTRELNVVSQQLLDLRQQVSALKASSPPNAV
notes: tested in cell extracts; also called wt pIX; untagged wt pIX
**Q.** Does B1 bind?
**A.** Result: no binding
